Measurements as given in patent US10562935B2, “Stapled peptides and uses thereof” (London Health Sciences Centre Research Inc., priority 2015, dated 2020).
Bridges are numbered along the chain shown (N, C = ends).

Legend:
[1] = system: NF-κB; test: Inflammation assay: NF-κB inducible SEAP reporter in RAW-Blue macrophages stimulated with PAM3CSK4; assay type: cell-based, murine; conditions: % inhibition relative to positive control
Method in brief: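 RAW-Blue murine RAW 264.7 macrophages carrying an NF-κB-inducible SEAP reporter were stimulated with 200 ng/mL PAM3CSK4 and given peptide at 10 ng/mL. After 18 h, supernatant SEAP was developed with QUANTI-BLUE for 20 min at 37 °C and read by absorbance at 630 nm. Values are mean and SDM of n=3.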

[2] = Direct HA-binding ELISA of biotinylated peptides on HA coated plates (Example 4); set-up: key to HA binding: absorbance (color) read at 450 nm; conditions: for HA binding: as repeated in tables 16, 18, 20; for HA direct binding (OD): optical density, summary tables 15, 17, 19
Method in brief: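 N-terminally biotinylated peptides (AEEA spacer) added to HA-coated wells at 0.8 or 0.08 μM, n=3, overnight at 4° C with shaking; biotin-labeled 7 kDa RHAMM as positive control. Bound peptide detected with streptavidin-HRP (1 hr, room temperature) and TMB substrate (5-10 min), absorbance at 450 nm.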

[3] = Circular dichroism (CD) spectroscopy of linear and stapled peptides in water or 40% TFE/water (Example 3); assay type: physicochemical; conditions: for [0]208 mean residue ellipticity: λ = 208 nm; for [0]222 mean residue ellipticity: λ = 222 nm
Method in brief: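 Spectra 180–260 nm at 20 °C, 0.5 mM N-acetylated, C-amidated peptides in 0.1M phosphate buffer (water) or 40% TFE/water, 1 mm path, five scans averaged, buffer baseline subtracted. Mean residue ellipticity reported at 222 and 208 nm with the 222/208 ratio as helicity index.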

[4] = [θ]222/[θ]208 ratio in water, summary tables 15, 17, 19
[5] = as repeated in tables 16, 18, 20

HA binding [2] | HA direct binding (OD) [2] [OD] | Substance | Inflammation (% Inhib.) [1] [% Inhib.] | [θ]222/[θ]208 ratio of ellipticities [3, 4] | [θ]222/[θ]208 ratio of ellipticities [3, 5] | [0]222/[0]208 ratio of ellipticities ([3]; in 40% TFE/water) | [0]222/[0]208 ratio of ellipticities ([3]; in water) | alpha-helical character by CD (in words) ([3]; in water) | [0]208 mean residue ellipticity ([3]; in 40% TFE/water) [deg cm^2 dmol^−1] | [0]208 mean residue ellipticity ([3]; in water) | [0]222 mean residue ellipticity ([3]; in 40% TFE/water) [deg cm^2 dmol^−1] | [0]222 mean residue ellipticity ([3]; in water) [deg cm^2 dmol^−1] | [0]208 mean residue ellipticity at λ=208 nm ([3]; 40% TFE/water) [deg cm^2 dmol^−1] | [0]222/[0]208 ratio of ellipticities ([3]; 40% TFE/water) | [0]222 mean residue ellipticity at λ=222 nm ([3]; 40% TFE/water) [deg cm^2 dmol^−1] | [0]208 mean residue ellipticity at λ=208 nm ([3]; water) [deg cm^2 dmol^−1] | [0]222/[0]208 ratio of ellipticities ([3]; water) | [0]222 mean residue ellipticity at λ=222 nm ([3]; water) [deg cm^2 dmol^−1]
0.015 | 0.015 | Ac-(cyclo-4,8)-VSK[ERSQK]VKRKQN-NH2 (Ac-VSKERSQKVKRKQN-NH2; lactam 4-8; SMILES CC(=O)N[C@H](C(=O)N[C@@H](CO)C(=O)N[C@@H](CCCCN)C(=O)N[C@H]1CCC(=O)NCCCC[C@@H](C(=O)N[C@H](C(=O)N[C@@H](CCCCN)C(=O)N[C@@H](CCCNC(=N)N)C(=O)N[C@@H](CCCCN)C(=O)N[C@@H](CCC(N)=O)C(=O)N[C@@H](CC(N)=O)C(N)=O)C(C)C)NC(=O)[C@H](CCC(N)=O)NC(=O)[C@H](CO)NC(=O)[C@H](CCCNC(=N)N)NC1=O)C(C)C) [Compound 150] | 0 | 0.53 | 0.53 | 0.81 | 0.53 | decreased helicity | -1.21E+04 | -6.30E+03 deg cm^2 dmol^−1 | -9.75E+03 | -3.35E+03 |  |  |  |  |  | 
0.19 | 0.19 | Ac-(cyclo-10-14, cyclo-15-19)-KIKHVVKLK[KENSE][EKSEK]SKLRSQLVKRK-NH2 [Compound 269] | 0 | 0.44 | 0.44 |  |  |  |  |  |  |  | -2.65E04 | 0.81 | -2.14E04 | -9.04E+03 | 0.44 | -3.99E+03

The remaining lines, values behind:

Substance | HA binding [2] | HA direct binding (OD) [2] [OD] | Inflammation (% Inhib.) [1] [% Inhib.] | [θ]222/[θ]208 ratio of ellipticities [3, 4] | [θ]222/[θ]208 ratio of ellipticities [3, 5] | [0]222/[0]208 ratio of ellipticities ([3]; in 40% TFE/water) | [0]222/[0]208 ratio of ellipticities ([3]; in water) | alpha-helical character by CD (in words) ([3]; in water) | [0]208 mean residue ellipticity ([3]; in 40% TFE/water) [deg cm^2 dmol^−1] | [0]208 mean residue ellipticity ([3]; in water) | [0]222 mean residue ellipticity ([3]; in 40% TFE/water) [deg cm^2 dmol^−1] | [0]222 mean residue ellipticity ([3]; in water) [deg cm^2 dmol^−1] | [0]208 mean residue ellipticity at λ=208 nm ([3]; 40% TFE/water) [deg cm^2 dmol^−1] | [0]222/[0]208 ratio of ellipticities ([3]; 40% TFE/water) | [0]222 mean residue ellipticity at λ=222 nm ([3]; 40% TFE/water) [deg cm^2 dmol^−1] | [0]208 mean residue ellipticity at λ=208 nm ([3]; water) [deg cm^2 dmol^−1] | [0]222/[0]208 ratio of ellipticities ([3]; water) | [0]222 mean residue ellipticity at λ=222 nm ([3]; water) [deg cm^2 dmol^−1]
Ac-VSKLRSQLVKRKQN-NH2 [Compound 132] | 0.03 | 0.03 | 0 | 0.13 | 0.13 | 0.72 | 0.13 | nominal alpha helical character in water | -1.59E+04 | -4,85E+03 deg cm^2 dmol^−1 | -1.14E+04 | -1.10E+03 |  |  |  |  |  | 
Ac-(cyclo-10-14, cyclo-15-19)-KIKHVVKLK[EENSK][EKSEK]SKLRSQLVKRK-NH2 (Ac-KIKHVVKLKEENSKEKSEKSKLRSQLVKRK-NH2; lactam 10-14, 15-19; SMILES CC[C@H](C)[C@H](NC(=O)[C@H](CCCCN)NC(C)=O)C(=O)N[C@@H](CCCCN)C(=O)N[C@@H](Cc1c[nH]cn1)C(=O)N[C@H](C(=O)N[C@H](C(=O)N[C@@H](CCCCN)C(=O)N[C@@H](CC(C)C)C(=O)N[C@@H](CCCCN)C(=O)N[C@H]1CCC(=O)NCCCC[C@@H](C(=O)N[C@H]2CCC(=O)NCCCC[C@@H](C(=O)N[C@@H](CO)C(=O)N[C@@H](CCCCN)C(=O)N[C@@H](CC(C)C)C(=O)N[C@@H](CCCNC(=N)N)C(=O)N[C@@H](CO)C(=O)N[C@@H](CCC(N)=O)C(=O)N[C@@H](CC(C)C)C(=O)N[C@H](C(=O)N[C@@H](CCCCN)C(=O)N[C@@H](CCCNC(=N)N)C(=O)N[C@@H](CCCCN)C(N)=O)C(C)C)NC(=O)[C@H](CCC(=O)O)NC(=O)[C@H](CO)NC(=O)[C@H](CCCCN)NC2=O)NC(=O)[C@H](CO)NC(=O)[C@H](CC(N)=O)NC(=O)[C@H](CCC(=O)O)NC1=O)C(C)C)C(C)C) [Compound 266] | 0.24 | 0.24 | 0 | 0.63 | 0.63 |  | 0.63 | best improvement in helicity |  |  |  |  | -2.11E04 | 0.84 | -1.77E04 | -9.36E+03 | 0.63 | -5.89E+03
Ac-(cyclo-7,11)-NLKQKI[EHVVK]LKDE-NH2 (Ac-NLKQKIEHVVKLKDE-NH2; lactam 7-11; SMILES CC[C@H](C)[C@H](NC(=O)[C@H](CCCCN)NC(=O)[C@H](CCC(N)=O)NC(=O)[C@H](CCCCN)NC(=O)[C@H](CC(C)C)NC(=O)[C@H](CC(N)=O)NC(C)=O)C(=O)N[C@H]1CCC(=O)NCCCC[C@@H](C(=O)N[C@@H](CC(C)C)C(=O)N[C@@H](CCCCN)C(=O)N[C@@H](CC(=O)O)C(=O)N[C@@H](CCC(=O)O)C(N)=O)NC(=O)[C@H](C(C)C)NC(=O)[C@H](C(C)C)NC(=O)[C@H](Cc2c[nH]cn2)NC1=O) [Compound 160] | 0.004 | 0.004 | 0 | 0.55 | 0.55 | 0.86 | 0.55 |  | -1.65E+04 | -6.98E+03 deg cm^2 dmol^−1 | -1.42E+04 | -3.85E+03 |  |  |  |  |  | 
Ac-(cyclo-7-11, cyclo-28-32)-NLKQKI[EHVVK]LKDENSQLKSEVSKLR[EQLVK]RKQN-NH2 (Ac-NLKQKIEHVVKLKDENSQLKSEVSKLREQLVKRKQN-NH2; lactam 7-11, 28-32; SMILES CC[C@H](C)[C@H](NC(=O)[C@H](CCCCN)NC(=O)[C@H](CCC(N)=O)NC(=O)[C@H](CCCCN)NC(=O)[C@H](CC(C)C)NC(=O)[C@H](CC(N)=O)NC(C)=O)C(=O)N[C@H]1CCC(=O)NCCCC[C@@H](C(=O)N[C@@H](CC(C)C)C(=O)N[C@@H](CCCCN)C(=O)N[C@@H](CC(=O)O)C(=O)N[C@@H](CCC(=O)O)C(=O)N[C@@H](CC(N)=O)C(=O)N[C@@H](CO)C(=O)N[C@@H](CCC(N)=O)C(=O)N[C@@H](CC(C)C)C(=O)N[C@@H](CCCCN)C(=O)N[C@@H](CO)C(=O)N[C@@H](CCC(=O)O)C(=O)N[C@H](C(=O)N[C@@H](CO)C(=O)N[C@@H](CCCCN)C(=O)N[C@@H](CC(C)C)C(=O)N[C@@H](CCCNC(=N)N)C(=O)N[C@H]2CCC(=O)NCCCC[C@@H](C(=O)N[C@@H](CCCNC(=N)N)C(=O)N[C@@H](CCCCN)C(=O)N[C@@H](CCC(N)=O)C(=O)N[C@@H](CC(N)=O)C(N)=O)NC(=O)[C@H](C(C)C)NC(=O)[C@H](CC(C)C)NC(=O)[C@H](CCC(N)=O)NC2=O)C(C)C)NC(=O)[C@H](C(C)C)NC(=O)[C@H](C(C)C)NC(=O)[C@H](Cc2c[nH]cn2)NC1=O) [Compound 278] | 0.125 | 0.125 | 0 | 0.74 | 0.74 |  | 0.74 | greatest alpha-helical character |  |  |  |  | -2.44E04 | 0.86 | -2.12E04 | -1.33E+04 | 0.74 | -9.95E+03
